PMC6878762 (Nature, 2012)

B1: Dom34 (Pelota of Saccharomyces cerevisiae) (natural protein, S. cerevisiae, UniProt P33309 1-386, looked up)
chain: MKVISLKKDSFNKGGAVITLLPEDKEDLFTVYQIVDKDDELIFKKKFTSKLDEAGKKKSTDLVKLKIKVISEDFDMKDEYLKYKGVTVTDESGASNVDIPVGKYLSFTLDYVYPFTIIKQNFNKFMQKLLNEACNIEYKSDTAAVVLQEGIAHVCLVTSSSTILKQKIEYSMPKKKRTTDVLKFDEKTEKFYKAIYSAMKKDLNFDKLKTIILCSPGFYAKILMDKIFQYAEEEHNKKILDNKGMFFIAHCSTGYLQGINEVLKNPLYASKLQDTKYSKEIMVMDEFLLHLNKDDDKAWYGEKEVVKAAEYGAISYLLLTDKVLHSDNIAQREEYLKLMDSVESNGGKALVLSTLHSLGEELDQLTGIACILKYPLPDLDEDDGEE

Key:
[1] = molecular target: Rli1 (ABCE1 of Saccharomyces cerevisiae) (S. cerevisiae, UniProt Q03195 1-608); experiment: cryo-EM structure
[2] = molecular target: B1; experiment: cryo-EM structure

Chain of Rli1 (ABCE1 of Saccharomyces cerevisiae) (Q03195 whole entry): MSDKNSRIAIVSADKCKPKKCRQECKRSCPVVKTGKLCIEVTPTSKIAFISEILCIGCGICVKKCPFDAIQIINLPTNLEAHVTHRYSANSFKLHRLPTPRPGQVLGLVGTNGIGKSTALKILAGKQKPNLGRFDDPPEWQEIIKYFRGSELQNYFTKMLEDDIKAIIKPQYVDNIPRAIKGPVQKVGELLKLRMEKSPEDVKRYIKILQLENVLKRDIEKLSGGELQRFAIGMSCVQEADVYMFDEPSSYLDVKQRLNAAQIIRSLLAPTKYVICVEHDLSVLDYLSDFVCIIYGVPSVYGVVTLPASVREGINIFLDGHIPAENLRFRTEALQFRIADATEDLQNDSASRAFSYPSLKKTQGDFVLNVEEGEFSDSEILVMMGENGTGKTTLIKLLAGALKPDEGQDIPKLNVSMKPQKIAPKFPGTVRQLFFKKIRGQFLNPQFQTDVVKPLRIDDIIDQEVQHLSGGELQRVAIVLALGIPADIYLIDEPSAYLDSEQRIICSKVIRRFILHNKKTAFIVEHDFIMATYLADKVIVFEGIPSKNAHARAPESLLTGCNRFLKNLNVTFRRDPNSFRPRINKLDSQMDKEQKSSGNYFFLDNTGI

B1
binding result [1]: binds

B2: ribosomal protein rpP0 (yeast 60S subunit) (natural protein, UniProt P05317 1-312, looked up)
chain: MGGIREKKAEYFAKLREYLEEYKSLFVVGVDNVSSQQMHEVRKELRGRAVVLMGKNTMVRRAIRGFLSDLPDFEKLLPFVKGNVGFVFTNEPLTEIKNVIVSNRVAAPARAGAVAPEDIWVRAVNTGMEPGKTSFFQALGVPTKIARGTIEIVSDVKVVDAGNKVGQSEASLLNLLNISPFTFGLTVVQVYDNGQVFPSSILDITDEELVSHFVSAVSTIASISLAIGYPTLPSVGHTLINNYKDLLAVAIAASYHYPEIEDLVDRIENPEKYAAAAPAATSAASGDAAPAEEAAAEEEEESDDDMGFGLFD
binding result [1]: binds

B3: ribosomal protein rpS30 (yeast 40S subunit) (natural protein, UniProt P0CX33 1-63, looked up)
chain: MAKVHGSLARAGKVKSQTPKVEKTEKPKKPKGRAYKRLLYTRRFVNVTLVNGKRRMNPGPSVQ
binding result [2]: binds
